Measurements reported in article PMC4699798 (Cell, 2015).

Target: Slit-N fused to alkaline phosphatase (Drosophila)
Assay: alkaline phosphatase fusion binding assay on beads

Kd: 22.2 ± 2.85 nM
B1: Dscam1 EC4 fused to Fc (Fc fusion)
chain: ANPPDADQKGPVFLKEPTNRIDFSNSTGAEIECKASGNPMPEIIWIRSDGTAVGDVPGLRQISSDGKLVFPPFRAEDYRQEVHAQVYACLARNQFGSIISRDVHVRAVVAQYYEADVNKEHVIRGNSAVIKCLIPSFVADFVEVVSWHTDEEENYFPGAEYDGKYLVLPSGELHIREVGPEDGYKSYQCRTKHRLTGETRLSATKGRLVITEPVSSSPPKINALTYKPNIVESMASTAILCPAQGYPAPSFRWYKFIEGTTRKQAVVLNDRVKQVSGTLIIKDAVVEDSGKYLCVVNNSVGGESVETVLTVTAPLSAKIDPPTQTVDFGRPAVFTCQYTGNPIKTVSWMKDGKAIGHSEPVLRIESVKKEDKGMYQCFVRNDQESAEASAELK
